Target: GST-PLIED-M1 (E. coli) (UniProt P0ABQ4)

Question: With “Recombinant human MDM2 (17-125) (from UniProt Q00987 17-125) (domain or fragment)” as the substance, how does the acetylation yield of MDM2 K51 (LC-MS/MS) with MDM2 (1.4 μM), PLIED-M1 (4 μM), TMP-BAHA 1 (10 μM) and acetyl donor 2 (100 μM), 37 °C, 5 h read?
Answer: 70%

From paper PMC10683481
